The text below walks through data of publication PMC8694623 (Science Advances, 2021).

The data set “cryo-EM structure” concerns the molecule itself. Put plainly: cryo-EM structure.
The data set “negative-stain EM” concerns the molecule itself. Put plainly: negative-stain EM.

B1: S. cerevisiae Atm1-Strep (ABC transporter of mitochondria 1), wild type (natural protein, UniProt P40416 92-690, looked up)
chain: LKDLFRYIWPKGNNKVRIRVLIALGLLISAKILNVQVPFFFKQTIDSMNIAWDDPTVALPAAIGLTILCYGVARFGSVLFGELRNAVFAKVAQNAIRTVSLQTFQHLMKLDLGWHLSRQTGGLTRAMDRGTKGISQVLTAMVFHIIPISFEISVVCGILTYQFGASFAAITFSTMLLYSIFTIKTTAWRTHFRRDANKADNKAASVALDSLINFEAVKYFNNEKYLADKYNGSLMNYRDSQIKVSQSLAFLNSGQNLIFTTALTAMMYMGCTGVIGGNLTVGDLVLINQLVFQLSVPLNFLGSVYRDLKQSLIDMETLFKLRKNEVKIKNAERPLMLPENVPYDITFENVTFGYHPDRKILKNASFTIPAGWKTAIVGSSGSGKSTILKLVFRFYDPESGRILINGRDIKEYDIDALRKVIGVVPQDTPLFNDTIWENVKFGRIDATDEEVITVVEKAQLAPLIKKLPQGFDTIVGERGLMISGGEKQRLAIARVLLKNARIMFFDEATSALDTHTEQALLRTIRDNFTSGSRTSVYIAHRLRTIADADKIIVLDNGRVREEGKHLELLAMPGSLYRELWTIQEDLDHLENELKDQQEL
For B1, the binding result in “cryo-EM structure” is “binds”.

B2: Atm1-L657 truncation mutant (residues 92 to 656), C-terminally Strep-tagged (domain or fragment, S. cerevisiae, UniProt P40416 92-656, looked up)
chain: LKDLFRYIWPKGNNKVRIRVLIALGLLISAKILNVQVPFFFKQTIDSMNIAWDDPTVALPAAIGLTILCYGVARFGSVLFGELRNAVFAKVAQNAIRTVSLQTFQHLMKLDLGWHLSRQTGGLTRAMDRGTKGISQVLTAMVFHIIPISFEISVVCGILTYQFGASFAAITFSTMLLYSIFTIKTTAWRTHFRRDANKADNKAASVALDSLINFEAVKYFNNEKYLADKYNGSLMNYRDSQIKVSQSLAFLNSGQNLIFTTALTAMMYMGCTGVIGGNLTVGDLVLINQLVFQLSVPLNFLGSVYRDLKQSLIDMETLFKLRKNEVKIKNAERPLMLPENVPYDITFENVTFGYHPDRKILKNASFTIPAGWKTAIVGSSGSGKSTILKLVFRFYDPESGRILINGRDIKEYDIDALRKVIGVVPQDTPLFNDTIWENVKFGRIDATDEEVITVVEKAQLAPLIKKLPQGFDTIVGERGLMISGGEKQRLAIARVLLKNARIMFFDEATSALDTHTEQALLRTIRDNFTSGSRTSVYIAHRLRTIADADKIIVLDNGRVREEGKH
For the protein B2, the binding result in “negative-stain EM” is “binds”.
